The values below come from patent publication US20220332804A1 (CSL INNOVATION, published 2022).

Holding throughout (assay): SPR; KD relative to WT C2;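 note: biacore SPR at 37 °C, anti-C2 mAbs captured on an anti-human IgG chip, alanine or serine C2 surface mutants tested, KD from 1:1 fit compared with wild-type C2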
Background: Surface plasmon resonance follows binding to a sensor surface in real time, without labels.

For assay [1], the target named is T1, human C2 E433A (human, UniProt P06681 21-752).
T1 sequence: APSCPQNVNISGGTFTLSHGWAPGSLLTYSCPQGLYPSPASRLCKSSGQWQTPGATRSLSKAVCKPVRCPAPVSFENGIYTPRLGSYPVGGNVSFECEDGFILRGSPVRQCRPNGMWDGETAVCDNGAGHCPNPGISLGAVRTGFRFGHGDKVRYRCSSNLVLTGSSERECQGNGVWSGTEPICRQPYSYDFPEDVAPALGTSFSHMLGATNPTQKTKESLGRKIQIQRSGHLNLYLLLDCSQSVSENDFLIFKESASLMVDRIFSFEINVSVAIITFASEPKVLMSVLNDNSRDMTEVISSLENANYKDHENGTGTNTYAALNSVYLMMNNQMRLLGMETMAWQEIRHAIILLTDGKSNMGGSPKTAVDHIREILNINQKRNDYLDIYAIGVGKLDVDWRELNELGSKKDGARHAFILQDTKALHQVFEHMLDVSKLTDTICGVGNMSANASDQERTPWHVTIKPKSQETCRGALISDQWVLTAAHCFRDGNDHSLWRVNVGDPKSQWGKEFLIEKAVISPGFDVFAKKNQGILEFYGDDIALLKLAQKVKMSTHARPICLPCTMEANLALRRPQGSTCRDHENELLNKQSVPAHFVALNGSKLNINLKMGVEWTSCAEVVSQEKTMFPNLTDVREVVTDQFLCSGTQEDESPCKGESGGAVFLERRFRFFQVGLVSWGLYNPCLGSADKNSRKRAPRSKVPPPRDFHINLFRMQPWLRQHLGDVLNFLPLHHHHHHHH

In assay [2] the target is T2, human C2 N380A (human, UniProt P06681 21-752).
T2 sequence: T1 sequence with N360A, A413E

Assay [3] concerns the target T3, human C2 M316A (human, UniProt P06681 21-752).
T3 sequence: T1 sequence with M296A, A413E

In assay [4] the target is T4, human C2 D441A (human, UniProt P06681 21-752).
T4 sequence: T1 sequence with A413E, D421A

Where a chain is given by its changes, count along the chain named.

B1: RF16-214 (antibody, V domains shown)
VH: EVQLLESGGGLVQPGGSLRLSCAASGFTFSWYQMMWVRQAPGKGLEWVSRIYPSGGGTAYADSVKGRFTISRDNSKNTLYLQMNSLRAEDTAVYYCARDAGYGDNWGQGTLVTVSS
VL: QSALTQPPSVSVSPGQTASITCSGDKLGEKYASWYQQKAGQSPVMVIYQDRKRPSGIPERFSGSNSGNTATLTISGTQAMDEADYYCQAWDTRAVVFGGGTKLTVLG
As to B1, the Fold diff in assay [1] is 1 fold; in assay [2], 2 fold; in assay [3], 1 fold; in assay [4], 2 fold.
